# From the DeepSol protein solubility set
# Assay: soluble on expression in E. coli; label from the status in PepcDB or PDB records
row,Sequence,soluble on expression in E. coli
1,MAHHHHHHMRASERVPADDAATRVCPHSLIDSPSPSLMQAASAVATATATSSGIANLKQEASHEERLKVADHTAVKAWSLLNKMWYPDYHMASLAGWMGVPGGLCYHNGFYHVFYQYNPFSENWGPMHWGHMTSEDLVHWQHQPIALAPGELFDHDGCFSGSSVSYNNKLYIFYTGHTWRTESEKGSGNGTMGDGASFYQQQCVAVSSDGVNFEKLGAVVRPPPGYVHFRDPKVWQQDGRWWMVCGARDVTKDLGQLLLFTTEDLLKWDDTNWQVLGMTEDKNVFMWECPDMFRLGQMNVFLYSPQGMRKADYAYRNRFQSGYLLGSWNMSLVTAALSEREAGSPKGTASGSHAIGGPRWLASFDVTQRFREIDRGHDFYAPQTLLTKDGRRLIIGWMDMWESPMPTRGHGWSGCLTLPRELILDPFTGSVRMVPPKELLQLRCAQATILAQRIQESTDVLLVESCTAYELDIAFNMETSTAEKYGLWLGSGAELYVDAQSKRLVLNRHYPQHMLSGYRSCELPIGLLLQLHVFIDRSSIEVFVNNGEATFSSRVFPDEGDRALRVFSVNGTADMVGGTMWKLKATVRH,not soluble
2,GSSHHHHHHSFFFLSFHISNLQFNSSLEDPSTDYYQELQRDISEMFLQIYKQGGFLGLSNIKFRPG,soluble
3,MGHHHHHHSHMPGRSSSNSGSTGFISFSGVESALSSLKNFQACINSGMDTASSVALDLVESQTEVSSEYSMDKAMVEFATLDRQLNHYVKAVQSTINHVKEERPEKIPDLKLLVEKKLLALQSKNSDADFQNNEKFVQFKQQLKELKKQCGLQADREADGTEGVDEDIIVTQSQTNFTCPITKEEMKKPVKNKVCGHTYEEDAIVRMIESRQKRKKKAYCPQIGCSHTDIRKSDLIQDEALRRAIENHNKKRHRHSE,not soluble
4,IVVLHGLYMHGLVMKPLASRLRRKGHSVQVVSYNSVRINEALLFKRIRNCLSETEKNVIVGHSLGGILAVHFVNSHNDKHTPIDSIVTIGSPLQGASIAKEIQNRKLGFILGNSKEQGLVDVNQLTVDCPIGSIAGTLPIGIRSSIIRDRVPSDGTVTVEETVLPELKDHLCLNYSHTSLIYAKQTVEQIDYFIHHHEFKRV,not soluble
5,MGSDKIHHHHHHMEYISLNRLGGAAGCPADAEAAARFRAALPEGCKGTFAVARRIAPVIIDFDLVMQEGAASVSLAKGLGLPVVPCIRRQVERARTDFPQRLQLELTNCCNNDCVMCPRHGGHFTRKPKHMDLDLVRRALDEIAQHYNYQLQLFHIGEPLLHPRIFEILDMLEDYPTLGRKWISSKGQELTPDIMRRVLTSKVDYFNYSLLAMTPATYARIVPNGDYATVRGNLERLADLKRDLGVQRPYLRAQMIEMDEALHEIDAFLDTWADRVDLLSVNRLETFSNRIDAKVTSAIKPRESIGPRACKRLERGDLYILSNGEVTVCDTDFNGELSLGNLNETTLAEMARGARYRQIIDSHERGDYSQIELCRHCEDWNL,not soluble
6,MSSKPLYTILTVFNPIFIYFTKRDNLHTLRFKKDRAIKISEELFPDELCERCGRCCILHAYKTEDGIKTIYCEHLDPETKLCKVYKDRFKHRCLTVMEGILAGVFPKDCPYVKNLKNYEEPWFYRHLRDLEHHHHHH,not soluble
7,MANDPYIQSFTCFDGTRRLLTAALPEVALALKQAVAGGAAGPLLVFDNATGRSVDLDIRGSSEDLLARLVVAGERQPAEEAAPRGRGRPKLGVVAREVTLLPRHWEWLAAQPGGASVALRKLVEEARRSQSGRARQAQERAYHFMNAMAGDLPGFEEATRALFAGDREGFAERIAGWPTDVREHAAWLASDGES,not soluble
8,MITKRQLSILNAIVEDYVDFGQPIGSKTLIHRHHLDVSPATIRNEMKQLEEMHFIEKTHTSSGRVPSESGIRYYVNRLLEQTSHQSQNKIQRLNQLLIENHYDSSTALTNFAHELSMKSQYATLVVRPNHKQDVINDIHLIRANNHLIILVMVFSSGHVENIHFVSHAQLNNINLNKIANFLTEHFSFNRKVLTQNIESYFSQKEELLLANEVVEMINLQIGNQSNSIYMGGKVKLIDALNESNVSSIQPILQYIESNKITELLEDISTSQINVRIGKEIDDSLSDISIVTSQYHFDESLKGQIAVIGPTAMHYQNVIQLLNRIW,not soluble
9,GSHMSQLYASLFYQRDVTEIFSDRALVSYMVEAEVALAQAQAQVGVIPQSAATVIQRAAKTAIDKIDFDALATATGLAGNIAIPFVKQLTAIVKDADEDAARYVHWGATSQDILDTACILQCRDALAIVQNQVQQCYETALSQAQTYRHQVMMGRTWLQQALPITLGHKLARWASAFKRDLDRINAIKARVLVAQLGGAVGSLASLQDQGSIVVEAYAKQLKLGQTACTWHGERDRIVEIASVLGIITGNVGKMARDWSLMMQTEIAEVFEPTAKGRGGSSTMPHKRNPVAAASVLAAANRVPALMSSIYQSMVQEHERSLGAWHAEWLSLPEIFQLTAGALERTLDVLKGMEVNAENMHQNIECTHGLIMAEAVMMALAPHMGRLNAHHVVEAACKTAVAEQKHLKDIISQVDEVKQYFNPSQLDEIFKPESYLGNIQDQIDAVLQEAKGEAK,soluble
10,MVKNQFPLVADGIAISDPAKQMALYENEDLITNIRGYYQDKEYDDIARNEEFTAKATSRQTPSSKRFCSNDEKHHYVKEARQKAKQDLKEKRQAYLAKEMAYVPKQVSKKQQPADSSPSQKQATTEMSRFTKKLHQDNYILAELPKEYKEPKNLPQQGTTKKNNYDFLKSSQIYNNKEMRQQREKTIAQELNLSRFEDLP,not soluble
11,MKACGIIVEYNPFHNGHRYHAQQARQQSGAEVVIAIMSGNFLQRGEPALLDKWARAEEALQNGVDLVIELPTAWSVQSADYFAKGGIKLLQALQCESLCFGTDSTSAIDYAAFGQFVQENQSLIDQTFHALTDKQLSYPQKMTAVFRQVYPESRFDFSSPNHILGMSYAKENATYPTPMTLYPIARKQAGFHDATISGKVASATAIRQSVFQQEITQVLPTVPSITAQHLQTQTMISWENYWPFLKYKIVQSSLEELQAIYQMTEGLEYRLKDQIQAAGSFHELMERMKTKRYTWTRLQRLATYILLNMTKEEVETVWQNSYLHVLGFTPKGQAYLKETKAQIQLPVISKVSKENRAMLSLDIRANQLYQMGDSSLKEQNFGRFPLRFSPDT,not soluble
12,MNTGPYYFVKNLPLHELITPEFISTFIKKGSCYALTYNTHIDEDNTVALLPNGKLILSLDKDTYEETGLQGHPSQFSGRKIMKFIVSIDLMELSLNLDSKKYERISWSFKEKKPLKFDFLLAWHKTGSEESTMMSYFSKYQIQEHQPKVALSTLRDLQCPVLQSSELEGTPEVSCRALELFDWLGAVFSNVDLNEPNNFISTYCCPEPSTVVAKAYLCTITGFILPEKICLLLEHLCHYFDEPKLAPWVTLSVQGFADSPVSWEKNEHGFRKGGEHLYNFVIFNNQDYWLQMAVGANDHCPPLEHHHHHH,not soluble
13,MGSDKIHHHHHHMYEENIYIKNSEYEFDNNLKQLASYLNIPVSIVRPYKEDLTLYQYKKGQVIYHSTDQIKFVYFLVNGCILHESSNITGDNYLRLSKDENIFPMNFIFNETPAPYEICTALTDCKILTLPKDLLEYLCRKHNEIFESLFKKLNETIQFQVEYIMALRANSAKERIERILQILCLSIGDDNGEFYELKQIMTVQLISNLSGLNRKTTGEIIRELKTENIIYQDKRNWIIKK,not soluble
14,MGSDKIHHHHHHMDTRKNVSGAERKIWSLIRDCSGKLEGVTETSVLEVLLIVSRVLGIRKEDLFLKDLGVSPTEEKRILELVEKRASGYPLHYILGEKEFMGLSFLVEEGVFVPRPETEELVELALELIRKYGIKTVADIGTGSGAIGVSVAKFSDAIVFATDVSSKAVEIARKNAERHGVSDRFFVRKGEFLEPFKEKFASIEMILSNPPYVKSSAHLPKDVLFEPPEALFGGEDGLDFYREFFGRYDTSGKIVLMEIGEDQVEELKKIVSDTVFLKDSAGKYRFLLLNRRSS,soluble
15,GESLFKGPRDYNPISSTICHLTNESDGHTTSLYGIGFGPFIITNKHLFRRNNGTLLVQSLHGVFKVKNTTTLQQHLIDGRDMIIIRMPKDFPPFPQKLKFREPQREERICLVTTNFQTKSMSSMVSDTSCTFPSSDGIFWKHWIQTKDGQAGSPLVSTRDGFIVGIHSASNFTNTNNYFTSVPKNFMELLTNQEAQQWVSGWRLNADSVLWGGHKVFMSKPEEPFQPVKEATQLMNELVYSQ,soluble
16,MSLSKDEELLQNYCSILFTYKTIGISNLHLYYFRETEIKSLKQLINAEFAILQTCNRVEIYLYSDTNTLKEVNKIIQYLNNIHNEPIGNQARVLCGKDAAKHLFLVASGADSLSIGEYEILSQIRSTIDMFKKLGFSGKYLQIFFERAIKVGRKVREETSISKGKVGIYSLAIDEAKKRFNDFYDRRILVIGAGEMAQKITSMLHNEGAKDVTIMNRTIEKAKQLALKFGYNYEKLDLDKLGNFDVAFISIYHENLRLENKWNTLIVDITVPPLFTGNNVITLEELERISNLNFKAREEELAKINKLVEDGINELLYDYKKEIYTEFMSKIMKREGHHHHHH,soluble
17,PLHHLMIGTWTPPGAIFTVQFDDEKLTCKLIKRTEIPQDEPISWMTFDHERKNIYGAAMKKWSSFAVKSPTEIVHEASHPIGGHPRANDADTNTRAIFLLAAKQPPYAVYANPFYKFAGYGNVFSVSETGKLEKNVQNYEYQENTGIHGMVFDPTETYLYSADLTANKLWTHRKLASGEVELVGSVDAPDPGDHPRWVAMHPTGNYLYALMEAGNRICEYVIDPATHMPVYTHHSFPLIPPGIPDRDPETGKGLYRADVCALTFSGKYMFASSRANKFELQGYIAGFKLRDCGSIEKQLFLSPTPTSGGHSNAVSPCPWSDEWMAITDDQEGWLEIYRWKDEFLHRVARVRIPEPGFGMNAIWYD,soluble
18,MSEPLLIARTPDTELFLLPGMANRHGLITGATGTGKTVTLQKLAESLSEIGVPVFMADVKGDLTGVAQAGTVSEKLLARLKNIGVNDWQPHANPVVVWDIFGEKGHPVRATVSDLGPLLLARLLNLNDVQSGVLNIIFRIADDQGLLLLDFKDLRAITQYIGDNAKSFQNQYGNISSASVGAIQRGLLSLEQQGAAHFFGEPMLDIKDWMRTDANGKGVINILSAEKLYQMPKLYAASLLWMLSELYEQLPEAGDLEKPKLVFFFDEAHLLFNDAPQVLLDKIEQVIRLIRSKGVGVWFVSQNPSDIPDNVLGQLGNRVQHALRAFTPKDQKAVKAAAQTMRANPAFDTEKAIQELGTGEALISFLDAKGSPSVVERAMVIAPCSRMGPVTEDERNGLINHSPVYGKYEDEVDRESAYEMLQKGFQASTEQQNNPPAKGKEVAVDDGILGGLKDILFGTTGPRGGKKDGVVQTMAKSAARQVTNQIVRGMLGSLLGGRRR,soluble
19,MGSDKIHHHHHHMNFREEFKLLLRARYPLIYIPTYEEERVEAAIREEATNQGNRPVYTWDFVDGYQGNPNDVGFGRRNPLQALEFIEKLPASAPAVLILRDYHRFLDDVAIARKLRNLSRLLKSQPKNIVLLSPRIAIPDDLTEVLTVVEFPLPAAAEIKTEVERLLQSTGNSLSGKVLDDLVLSCQGLSMERIRRVLAKAIATHGELQPEDVDLVLEEKRQTIRQTQILDFYPATEQISDIGGLDNLKDWLIRRGGSFTDKARQYGLPHPRGLMLVGIQGTGKSLTAKAIAHHWHLPLLRLDVGRLFGGLVGESESRTRQMIQVAEALAPCILWIDEIDKAFAGLGSKGDAGTASRVFGTFINWLAEKSSPVFVVATANDIQALPPEMLRKGRFDEIFFVGLPTQEERKAIYDVHLSRLRPHNLKSYDIERLAYETPDFSGAEIEQTLIEAMHIGFSQNRDFATDDILEAASQIVPLARTAVEQIQQLQEWAAAGRARLASKHNPLSERLRRTT,not soluble
20,MQGEDTIMKTTELKLVYFSPTGTTRRVIMEAARQIDLKSVSFDLSVHKEKKPVLQFDETDFVLFGIPVYSGRVPETFLSYFETLKGNNTPAALIATYGCRAYEDALLELKTEVENRGFHVIGAGAFPTEHSIVRSIGLSRPNKADLKTISEFGIALNRRIKNEDLSALSIQVPGNTPYRKYAKTPLIPKADVSLCTECKACVKSCPAGAISAQDPKKTDKKKCISCLRCVRSCKQKARSVSSMKLSMAAKKLNKVCQSDKAADIFL,not soluble
